Measurements taken from the DeepSol protein solubility set.

experiment: soluble on expression in E. coli; label from the status in PepcDB or PDB records

| Sequence | soluble on expression in E. coli |
| --- | --- |
| MGSDKIHHHHHHMVILHIIAGLEKGGAESTLKRLCLNGTEHEHVVVSLSTLGSVGLELQKAGVKVYCLDIRPSITSVAAIFRLYKIIKLRKPSVVQTWMYHADLVGGIVSRVAGVKKIYWGVHHTYLIKGQSKRVTIFISRINSVLSHFIPTKIVYCANSARVAQEKIGYNKKSGIVIFNGYDTSKFKRDLKLRSVYREKLGLKETDFVIGHVGRYDSLKDYPNLINAIRKVKYKVGGLKVILVGAGLSKDNRELLNVISESTLISKFHLLGPSDDIPGIMNAIDVFVLSSSSEAFPNVLNEAMACGTPCVSTDVGDASAIVGMTGWLSAAGDSSALAEKIYAAYKEFSENKANWEERQYSCRERIVTNFSSQSMVSNYTLLWQS | not soluble |
| MGSDKIHHHHHHMVKTNVTIMRGGTSKGVFFHESAMPNNKNEWEPFLLDVMGSPDKRQIDGLGGGNSLTSKVAIIKKAYTSDIDVHYTFGQVSISEEKVDFKGNCGNISAAVGPFAIEEGLVKAKEPMTAVRILNTNTNKMIIAEVEVEDGQVKYDGDVTISGVPGSGSPIYLNFHDAAGSVTGHLLPTGNSSEFLDTSQGQIEVSIIDYANPLVFVEASSIGLDGTELAEEFTDLQLAQFEELRSIAAEKCGFASRFSATKLSPAVPKLAIVAKPEKYKDSTGAWHSSVEMDLHIRMMSMQKSHQALAVTGAICTTRALSVEGAIPARIAKNHSTKVRLAHSSGIIETMVEPTGIKIVRTARRIMDGTVYTHGDYQMM | not soluble |
| MGSDKIHHHHHHMVMERGEIIGIVLQKSEANEMQGLIRADEEISVGQLLLVDDSEKLSLVRVENYEFLNEFFDEKGEIAKSILKEPSIYEILDMNTIIKATLHLIKKYDHNTTPKPGSFVRRLPEIKSEKELLSFYGIKNKKGLIEYGALAGSEIPLLLDLNAITMHMGVFGETGSGKSYNMRYLIKLLSNIKIGDKITALPMIVIDANGDYIDLASTNLDIVSKGRGWIKRYILKDPKEQNDIKLTIDLSIFTPRELSEFIMSLKYGEASYNTLQLNFLEQVLANHESKEYNTLLGSAIGIETLRNEILTMAQNKDIGITTGTARGIASALEIFKNKVISRLQLVNSSASLTENTLEVIWRNRGLAIIDFSADGSPGVDVLTKQLIVSYITRLIFNYLTRSKYNGNQRFLGFVIEEAQNYIPSIDYPVNANLTKDVLVTLATQGRKFGASLILVSQRPAFIDKYVLSMINTFFFHRIYHEDVRYVMSASGGLPESLTKNLTSLDTGYVIVSGLMSIMKSPALVRIPWDPRLGSYAGNVERIDLILSEG | not soluble |
| MGSDKIHHHHHHMVNSLTTPEPQTLKPGVKAPVQETLLTPRFYTTDFDAVANLDISANEAEIRAVVEELRADYNRHHFVRDEEFKQSWDHITGEKRRAFIDFLERSCTSEFSGFLLFKELSRRIKSRNPLLAEAFEFMARDEARHAGFLNKSMSDLNLSLDLNYLTKNRTYTFFPPEWVIYTVYLSEKIGYWRYILVHQHMQEHPEYQFYPLFRKFESWCQDENRHGDFFKALLRSQPQLWKNWKARLWVRFFLLTVFVTHTMTVFERASFYESIGIHPRKYNNRVIQETNNTSARAFPLILNTNHPLFFWRLEQCWENNMKLAAIKNNKLPNFVKFFQRIPPATAIFWNMLRLFLIKPIDTEATRGTVL | not soluble |
| MGSDKIHHHHHHMVVILSERAFSRRDQTGAEVMLNRRRFLTNAATAAAATLWVSKGGMQARAEEAGNGSPWRRFEIITKVDLQPAEGPAQLWLPVVRSAGDYQKADAPLWVSNSTDIRMEKDPSSGADILRVMWEDEPRRVIEVTQHVATRDRRVTSKIAATEAELQHELRGTPSMPVDGIVKTTAMRIVEGRDRAEDRARAIYDWVIDNTFRDANIDGCGVGNARDMLETGYFGGKCADISSLFVSLARAAGLPARDVFGIRVADSADFKSLGRSGDITKAQHCRAEVYLDAHGWVPVDPADVRKVVLEENLPLDNPAVRAFREKAYGNWEMNWVGYNTARDLVLPGGELRQGFLMYPAAVTSRGELDCLNPQTFAYSITSREITA | not soluble |
| MGSDKIHHHHHHMVVLMTKPGTSDFVWNGIPLSMELNLWNIKEYSGSVAMKFDGEKITFDADIQNLSPKEPERYVLGYPEFYYGYKPWENHTAEGSKLPVPVSSMKSFSVEVSFDIHHEPSLPLNFAMETWLTREKYQTEASIGDVEIMVWFYFNNLTPGGEKIEEFTIPFVLNGESVEGTWELWLAEWGWDYLAFRLKDPVKKGRVKFDVRHFLDAAGKALSSSARVKDFEDLYFTVWEIGTEFGSPETKSAQFGWKFENFSIDLEVRE | not soluble |
